Changes are numbered by the printed parent chain.
B1: complement factor H, homozygous Tyr-402/Val-62 allotype (natural protein)
chain: EDCNELPPRRNTEILTGSWSDQTYPEGTQAIYKCRPGYRSLGNVIMVCRKGEWVALNPLRKCQKRPCGHPGDTPFGTFTLTGGNVFEYGVKAVYTCNEGYQLLGEINYRECDTDGWTNDIPICEVVKCLPVTAPENGKIVSSAMEPDREYHFGQAVRFVCNSGYKIEGDEEMHCSDDGFWSKEKPKCVEISCKSPDVINGSPISQKIIYKENERFQYKCNMGYEYSERGDAVCTESGWRPLPSCEEKSCDNPYIPNGDYSPLRIKHRTGDEITYQCRNGFYPATRGNTAKCTSTGWIPAPRCTLKPCDYPDIKHGGLYHENMRRPYFPVAVGKYYSYYCDEHFETPSGSYWDHIHCTQDGWSPAVPCLRKCYFPYLENGYNQNYGRKFVQGKSIDVACHPGYALPKAQTTVTCMENGWSPTPRCIRVKTCSKSSIDIENGFISESQYTYALKEKAKYQCKLGYVTADGETSGSITCGKDGWSAQPTCIKSCDIPVFMNARTKNDFTWFKLNDTLDYECHDGYESNTGSTTGSIVCGYNGWSDLPICYERECELPKIDVHLVPDRKKDQYKVGEVLKFSCKPGFTIVGPNSVQCYHFGLSPDLPICKEQVQSCGPPPELLNGNVKEKTKEEYGHSEVVEYYCNPRFLMKGPNKIQCVDGEWTTLPVCIVEESTCGDIPELEHGWAQLSSPPYYYGDSVEFNCSESFTMIGHRSITCIHGVWTQLPQCVAIDKLKKCKSSNLIILEEHLKNKKEFDHNSNIRYRCRGKEGWIHTVCINGRWDPEVNCSMAQIQLCPPPPQIPNSHNMTTTLNYRDGEKVSVLCQENYLIQEGEEITCKDGRWQSIPLCVEKIPCSQPPQIEHGTINSSRSSQESYAHGTKLSYTCEGGFRISEENETTCYMGKWSSPPQCEGLPCKSPPEISHGVVAHMSDSYQYGEEVTYKCFEGFGIDGPAIAKCLGEKWSHPPSCIKTDCLSLPSFENAIPMGEKKDVYKAGEQVTYTCATYYKMDGASNVTCINSRWTGRPTCRDTSCVNPPTVQNAYIVSRQMSKYPSGERVRYQCRSPYEMFGDEEVMCLNGNWTEPPQCKDSTGKCGPPPPIDNGDITSFPLSVYAPASSVEYQCQNLYQLEGNKRITCRNGQWSEPPKCLHPCVISREIMENYNIALRWTAKQKLYSRTGESVEFVCKRGYRLSSRSHTLRTTCWDGKLEYPTCAKR
modifications: eight biantennary disialylated N-glycans; sites as printed: Asn-511, Asn-700, Asn-784, Asn-804, Asn-864, Asn-892, Asn-1011, Asn-1077
B2: complement factor H, double homozygous His-402/Val-62 allotype (natural protein)
chain: B1 chain with Y384H
modifications: eight biantennary disialylated N-glycans; sites as printed: Asn-511, Asn-700, Asn-784, Asn-804, Asn-864, Asn-892, Asn-1011, Asn-1077

Key:
[1] = target: B2; test: SPR
SPR = target: the molecule itself; test: SPR

Row | Binder | Kd [1] | Kd (SPR)
1 | B1 | > 40 µM | 
2 | B2 |  | > 40 µM
